Key:
OsUGT91C1 = molecular target: T1, OsUGT91C1 (Oryza sativa, UniProt Q0DPB7); assay: X-ray crystal structure; format: binding; settings: complexes with Reb E, ST or STB; UDP-glucose site
T1 construct: gene Os03g0702000; synthetic coding region in pET28b, His-tagged, E. coli BL21(DE3); HisTrap and gel filtration; tag removal not mentioned; monomer
T1 sequence (Q0DPB7 1-462): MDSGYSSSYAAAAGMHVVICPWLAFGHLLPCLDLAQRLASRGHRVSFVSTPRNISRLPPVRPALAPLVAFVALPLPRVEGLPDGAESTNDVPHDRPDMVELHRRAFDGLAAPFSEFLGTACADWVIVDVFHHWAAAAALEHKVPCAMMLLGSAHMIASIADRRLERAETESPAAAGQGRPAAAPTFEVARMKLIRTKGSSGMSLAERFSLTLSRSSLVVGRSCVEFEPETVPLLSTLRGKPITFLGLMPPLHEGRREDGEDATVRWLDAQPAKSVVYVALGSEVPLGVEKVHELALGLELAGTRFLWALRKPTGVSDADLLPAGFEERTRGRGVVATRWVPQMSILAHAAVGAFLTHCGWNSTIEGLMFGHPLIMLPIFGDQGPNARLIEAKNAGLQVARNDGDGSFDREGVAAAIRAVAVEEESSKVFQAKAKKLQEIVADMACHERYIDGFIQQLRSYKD

purified protein = substrate: C=C1C[C@@]23CC[C@H]4[C@@](C)(CCC[C@@]4(C)C(=O)O[C@@H]4O[C@H](CO)[C@@H](O)[C@H](O)[C@H]4O)[C@@H]2CC[C@]1(O[C@@H]1O[C@H](CO)[C@@H](O)[C@H](O[C@@H]2O[C@H](CO)[C@@H](O)[C@H](O)[C@H]2O)[C@H]1O[C@@H]1O[C@H](CO)[C@@H](O)[C@H](O)[C@H]1O)C3; assay: purified protein; settings: 200 μM UDP-glucose; beta(1-2) glucosylation at R2
[1] = substrate: C=C1C[C@@]23CC[C@H]4[C@@](C)(CCC[C@@]4(C)C(=O)O)[C@@H]2CC[C@]1(O[C@@H]1O[C@H](CO)[C@@H](O)[C@H](O)[C@H]1O)C3; assay: UDP-Glo glycosyltransferase assay, Michaelis-Menten fit; format: biochemical, Oryza sativa; settings: 200 μM UDP-glucose; beta(1-2) glucosylation at R1
[2] = substrate: C=C1C[C@@]23CC[C@H]4[C@@](C)(CCC[C@@]4(C)C(=O)O[C@@H]4O[C@H](CO)[C@@H](O)[C@H](O)[C@H]4O)[C@@H]2CC[C@]1(O[C@@H]1O[C@H](CO)[C@@H](O)[C@H](O)[C@H]1O)C3; assay: as above; format: biochemical, Oryza sativa; settings: 200 μM UDP-glucose; combined beta(1-2) glucosylation at R1 and R2
[3] = substrate: C=C1C[C@@]23CC[C@H]4[C@@](C)(CCC[C@@]4(C)C(=O)O)[C@@H]2CC[C@]1(O[C@@H]1O[C@H](CO)[C@@H](O)[C@H](O)[C@H]1O[C@@H]1O[C@H](CO)[C@@H](O)[C@H](O)[C@H]1O)C3; assay: as above; format: biochemical, Oryza sativa; settings: 200 μM UDP-glucose; beta(1-6) glucosylation at R1; crystal structure with UDP, R1 end at active site

Molecule	X-ray crystal structure (OsUGT91C1)	Km (purified protein) [µM]	kcat (purified protein) [s⁻¹]	kcat/Km (purified protein) [M⁻¹ s⁻¹]	Km [1] [µM]	kcat [1] [s⁻¹]	kcat/Km [1] [M⁻¹ s⁻¹]	Km [2] [µM]	kcat [2] [s⁻¹]	kcat/Km [2] [M⁻¹ s⁻¹]	Km [3] [µM]	kcat [3] [s⁻¹]	kcat/Km [3] [M⁻¹ s⁻¹]
O=c1ccn([C@@H]2O[C@H](COP(=O)(O)OP(=O)(O)O)[C@@H](O)[C@H]2O)c(=O)[nH]1 [UDP]	UDP is bound identically in all four complexes	–	–	–	–	–	–	–	–	–	–	–	–
OsUGT91C1 (Oryza sativa Japonica Group; F208M) (protein, synthetic coding region in pET28b, His-tagged, E. coli BL21(DE3); HisTrap and gel filtration; tag removal not mentioned; monomer) MDSGYSSSYAAAAGMHVVICPWLAFGHLLPCLDLAQRLASRGHRVSFVSTPRNISRLPPVRPALAPLVAFVALPLPRVEGLPDGAESTNDVPHDRPDMVELHRRAFDGLAAPFSEFLGTACADWVIVDVFHHWAAAAALEHKVPCAMMLLGSAHMIASIADRRLERAETESPAAAGQGRPAAAPTFEVARMKLIRTKGSSGMSLAERMSLTLSRSSLVVGRSCVEFEPETVPLLSTLRGKPITFLGLMPPLHEGRREDGEDATVRWLDAQPAKSVVYVALGSEVPLGVEKVHELALGLELAGTRFLWALRKPTGVSDADLLPAGFEERTRGRGVVATRWVPQMSILAHAAVGAFLTHCGWNSTIEGLMFGHPLIMLPIFGDQGPNARLIEAKNAGLQVARNDGDGSFDREGVAAAIRAVAVEEESSKVFQAKAKKLQEIVADMACHERYIDGFIQQLRSYKD	–	25.2 ± 2.0	0.0483	1920	18.7 ± 1.7	0.065 ± 0.00167	3480	20.9 ± 1.7	0.04 ± 0.00167	1910	–	–	–
OsUGT91C1 (Oryza sativa Japonica Group) (protein, synthetic coding region in pET28b, His-tagged, E. coli BL21(DE3); HisTrap and gel filtration; tag removal not mentioned; monomer) MDSGYSSSYAAAAGMHVVICPWLAFGHLLPCLDLAQRLASRGHRVSFVSTPRNISRLPPVRPALAPLVAFVALPLPRVEGLPDGAESTNDVPHDRPDMVELHRRAFDGLAAPFSEFLGTACADWVIVDVFHHWAAAAALEHKVPCAMMLLGSAHMIASIADRRLERAETESPAAAGQGRPAAAPTFEVARMKLIRTKGSSGMSLAERFSLTLSRSSLVVGRSCVEFEPETVPLLSTLRGKPITFLGLMPPLHEGRREDGEDATVRWLDAQPAKSVVYVALGSEVPLGVEKVHELALGLELAGTRFLWALRKPTGVSDADLLPAGFEERTRGRGVVATRWVPQMSILAHAAVGAFLTHCGWNSTIEGLMFGHPLIMLPIFGDQGPNARLIEAKNAGLQVARNDGDGSFDREGVAAAIRAVAVEEESSKVFQAKAKKLQEIVADMACHERYIDGFIQQLRSYKD	–	45.7 ± 3.0	0.0203	445	24.9 ± 2.5	0.0483 ± 0.00167	1940	49.5 ± 5.3	0.0333 ± 0.00167	673	71 ± 12	0.0105 ± 0.0005	148
OsUGT91C1 (Oryza sativa Japonica Group; F208M/F379A) (protein, synthetic coding region in pET28b, His-tagged, E. coli BL21(DE3); HisTrap and gel filtration; tag removal not mentioned; monomer) MDSGYSSSYAAAAGMHVVICPWLAFGHLLPCLDLAQRLASRGHRVSFVSTPRNISRLPPVRPALAPLVAFVALPLPRVEGLPDGAESTNDVPHDRPDMVELHRRAFDGLAAPFSEFLGTACADWVIVDVFHHWAAAAALEHKVPCAMMLLGSAHMIASIADRRLERAETESPAAAGQGRPAAAPTFEVARMKLIRTKGSSGMSLAERMSLTLSRSSLVVGRSCVEFEPETVPLLSTLRGKPITFLGLMPPLHEGRREDGEDATVRWLDAQPAKSVVYVALGSEVPLGVEKVHELALGLELAGTRFLWALRKPTGVSDADLLPAGFEERTRGRGVVATRWVPQMSILAHAAVGAFLTHCGWNSTIEGLMFGHPLIMLPIAGDQGPNARLIEAKNAGLQVARNDGDGSFDREGVAAAIRAVAVEEESSKVFQAKAKKLQEIVADMACHERYIDGFIQQLRSYKD	–	15.1 ± 2.6	0.0283	1880	9.7 ± 1.9	0.0583 ± 0.00167	6010	11.7 ± 1.0	0.0467 ± 0.00167	3990	–	–	–
OsUGT91C1 (Oryza sativa Japonica Group; F379A) (protein, synthetic coding region in pET28b, His-tagged, E. coli BL21(DE3); HisTrap and gel filtration; tag removal not mentioned; monomer) MDSGYSSSYAAAAGMHVVICPWLAFGHLLPCLDLAQRLASRGHRVSFVSTPRNISRLPPVRPALAPLVAFVALPLPRVEGLPDGAESTNDVPHDRPDMVELHRRAFDGLAAPFSEFLGTACADWVIVDVFHHWAAAAALEHKVPCAMMLLGSAHMIASIADRRLERAETESPAAAGQGRPAAAPTFEVARMKLIRTKGSSGMSLAERFSLTLSRSSLVVGRSCVEFEPETVPLLSTLRGKPITFLGLMPPLHEGRREDGEDATVRWLDAQPAKSVVYVALGSEVPLGVEKVHELALGLELAGTRFLWALRKPTGVSDADLLPAGFEERTRGRGVVATRWVPQMSILAHAAVGAFLTHCGWNSTIEGLMFGHPLIMLPIAGDQGPNARLIEAKNAGLQVARNDGDGSFDREGVAAAIRAVAVEEESSKVFQAKAKKLQEIVADMACHERYIDGFIQQLRSYKD	–	37.0 ± 2.5	0.0193	523	19.0 ± 2.6	0.0967 ± 0.00333	5090	16.5 ± 2.6	0.045 ± 0.00167	2730	–	–	–

Source: article PMC8639739, “Catalytic flexibility of rice glycosyltransferase OsUGT91C1 for the production of palatable steviol glycosides” (Nature Communications, 2021)
